B1: Myc-tagged full-length Gab1 (wild type) [mouse] / GST-PTP1B-D181A (substrate-trapping mutant of PTP1B, GST fusion protein) [mouse] (parent)
chain 1: MSGGEVVCSGWLRKSPPEKKLKRYAWKRRWFVLRSGRLTGDPDVLEYYKNDHAKKPIRIIDLNLCQQVDAGLTFNKKEFENSYIFDINTIDRIFYLVADSEEDMNKWVRCICDICGFNPTEEDPVKPLTGSSQAPVDSPFAISTAPASSQMEASSVALPPPYQVISLPPHPDTLGLQDDPQDYLLLINCQSKKPEPNRTLFDSAKPTFSETDCNDNVPSHQTPASSQSKHGMNGFFQQQMMYDCPPSRLTSVSGESSLYNLPRSYSHDVLPKESPSSTEADGELYTFNTPSGTAGVETQMRHVSISYDIPPTPGNTYQIPRTFPESTLGQSSKLDTIPDIPPPRPPKPHPTHDRSPVETCGVPRTASDTDSSYCIPPPAGMTPSRSNTISTVDLNKLRKDASSQDCYDIPRTFPSDRSSSLEGFHSQYKIKSVLTAGGVSGEELDENYVPMNPNSPPRQHSGSFTEPIQEPNYVPMTPGTFDFSSFGMQVPPPAHMGFRSSPKTPPRRPVPVADCEPPPVDRNLKPDRKVKPAPLDIKPLSEWEELQAPVRSPITRSFARDSSRFPMSPRPDSVHSTTSSSDSHDSEENYVPMNPNLSGEDPNLFASNSLDGGSSPMNKPKGDKQVEYLDLDLDSGKSTPPRKQKSSGSGSSMADERVDYVVVDQQKTLALKSTREAWTDGRQSTESETPTKNVK
chain 2: MEMEKEFEEIDKAGNWAAIYQDIRHEASDFPCKVAKLPKNKNRNRYRDVSPFDHSRIKLHQEDNDYINASLIKMEEAQRSYILTQGPLPNTCGHFWEMVWEQKSRGVVMLNRIMEKGSLKCAQYWPQQEEKEMVFDDTGLKLTLISEDVKSYYTVRQLELENLTTKETREILHFHYTTWPAFGVPESPASFLNFLFKVRESGSLSLEHGPIVVHCSAGIGRSGTFCLADTCLLLMDKRKDPSSVDIKKVLLEMRRFRMGLIQTADQLRFSYLAVIEGAKFIMGDSSVQDQWKELSREDLDLPPEHVPPPPRPPKRTLEPHNGKCKELFSSHQWVSEETCGDEDSLAREEGRAQSSAMHSVSSMSPDTEVRRRMVGGGLQSAQASVPTEEELSSTEEEHKAHWPSHWKPFLVNVCMATLLATGAYLCYRVCFH

Variants of B1 are the subject of this experiment. Kind of experiment: GST pull-down, anti-Myc immunoblot densitometry. The settings on record: with GST-PTP1B-D181A (substrate-trapping mutant of PTP1B, GST fusion protein) [mouse]; Gab1 expressed in HEK-293 T cells, pervanadate treatment; normalized to lysate loading control; parent: 100; read off a plot. On the technique in general: Immunoblotting shows a protein as a band on a membrane.
chain 1 Y373F: the percent of parent worked out at 200%.
With chain 1 Y628F, the percent of parent was 240%.
In the case of chain 1 Y590F it was 310%; in that of chain 1 Y448F, 170%.
For chain 1 Y407F, the percent of parent stood at 160%.
In the case of chain 1 Y285F it was 180%; in that of chain 1 Y660F, 150%; in that of chain 1 Y473F, 270%.

Values taken from paper PMC3637500.
